# Assay results as given in publication PMC11969024 (2025).
# B1: peptide HD2 (from tick evasin EVA4) / CCL18 (biotinylated, synthetic) (parent complex)
# chain 1: EEDDYTAYAPLTCYFT
# chain 2: AQVGTNKELCCLVYTSWQIPQKFIVDYSETSPQCPKPGVILLTKRGRQICADPNKKWVQKYISDLKLNA
# B2: peptide HD2 (from tick evasin EVA4) / CCL1 (biotinylated, synthetic) (parent complex)
# chain 1: EEDDYTAYAPLTCYFT
# chain 2: KSMQVPFSRCCFSFAEQEIPLRAILCYRNTSSICSNEGLIFKLKRGKEACALDTVGWVQRHRKMLRHCPSKRK
# Variants of: B1
row,Variant,enrichment
1,chain 1 D4P,-1.34 log2 (difference from the parental peptide)
2,chain 1 D4S,-2.31 log2 (difference from the parental peptide)
3,chain 1 D4K,-2.75 log2 (difference from the parental peptide)
4,chain 1 D4R,-2.64 log2 (difference from the parental peptide)
5,chain 1 L11R,-0.679 log2 (difference from the parental peptide)
6,chain 1 L11W,0.64 log2 (difference from the parental peptide)
7,chain 1 L11H,0.897 log2 (difference from the parental peptide)
8,chain 1 L11C,1.6 log2 (difference from the parental peptide)
9,chain 1 L11N,-3.89 log2 (difference from the parental peptide)
10,chain 1 L11K,-1.3 log2 (difference from the parental peptide)
11,chain 1 C13R,-9.16 log2 (difference from the parental peptide)
12,chain 1 C13N,-8.4 log2 (difference from the parental peptide)
13,chain 1 C13I,-5.57 log2 (difference from the parental peptide)
14,chain 1 F15G,-4.09 log2 (difference from the parental peptide)
15,chain 1 F15P,-0.512 log2 (difference from the parental peptide)
16,chain 1 F15Q,-0.376 log2 (difference from the parental peptide)
17,chain 1 F15A,0.456 log2 (difference from the parental peptide)
18,chain 1 T16L,0.179 log2 (difference from the parental peptide)
19,chain 1 T16K,-0.439 log2 (difference from the parental peptide)
20,chain 1 T16F,-0.482 log2 (difference from the parental peptide)
21,chain 1 T16N,0.14 log2 (difference from the parental peptide)
22,chain 1 E1I,-1.17 log2 (difference from the parental peptide)
23,chain 1 E1A,-0.823 log2 (difference from the parental peptide)
24,chain 1 E1Y,-1.67 log2 (difference from the parental peptide)

row,Variant,enrichment
1,chain 1 E1R,-3.04 log2 (difference from the parental peptide)
2,chain 1 E1L,-1.91 log2 (difference from the parental peptide)
3,chain 1 E1P,-2.16 log2 (difference from the parental peptide)
4,chain 1 D3E,0.978 log2 (difference from the parental peptide)
5,chain 1 D3W,-1.95 log2 (difference from the parental peptide)
6,chain 1 D3M,-1.4 log2 (difference from the parental peptide)
7,chain 1 D3L,-2.02 log2 (difference from the parental peptide)
8,chain 1 D3I,-2.12 log2 (difference from the parental peptide)
9,chain 1 T12N,-1.81 log2 (difference from the parental peptide)
10,chain 1 T12A,-0.729 log2 (difference from the parental peptide)
11,chain 1 T12S,-1.43 log2 (difference from the parental peptide)
12,chain 1 T12E,-0.867 log2 (difference from the parental peptide)
13,chain 1 T12F,-0.316 log2 (difference from the parental peptide)
14,chain 1 Y5D,-3.92 log2 (difference from the parental peptide)
15,chain 1 Y5I,-3.26 log2 (difference from the parental peptide)
16,chain 1 Y5L,-0.851 log2 (difference from the parental peptide)
17,chain 1 Y5Q,-2.39 log2 (difference from the parental peptide)
18,chain 1 T6F,-2.21 log2 (difference from the parental peptide)
19,chain 1 T6W,0.931 log2 (difference from the parental peptide)
20,chain 1 T6V,-3.07 log2 (difference from the parental peptide)
21,chain 1 T6E,2.48 log2 (difference from the parental peptide)
22,chain 1 T6I,-4.4 log2 (difference from the parental peptide)
23,chain 1 P10F,-9.61 log2 (difference from the parental peptide)
24,chain 1 P10D,-2.21 log2 (difference from the parental peptide)

row,Variant,enrichment
1,chain 1 P10L,-9.7 log2 (difference from the parental peptide)
2,chain 1 Y14S,-3.46 log2 (difference from the parental peptide)
3,chain 1 Y14H,-1.38 log2 (difference from the parental peptide)
4,chain 1 Y14G,-8.38 log2 (difference from the parental peptide)
5,chain 1 Y14M,-2.78 log2 (difference from the parental peptide)
6,chain 1 Y14E,-4.21 log2 (difference from the parental peptide)
7,chain 1 Y14W,-1.23 log2 (difference from the parental peptide)
8,chain 1 Y14F,0.0351 log2 (difference from the parental peptide)
9,chain 1 E2V,-1.58 log2 (difference from the parental peptide)
10,chain 1 E2N,-3.02 log2 (difference from the parental peptide)
11,chain 1 E2S,-2.49 log2 (difference from the parental peptide)
12,chain 1 A9F,-8.36 log2 (difference from the parental peptide)
13,chain 1 Y8P,-3.81 log2 (difference from the parental peptide)
14,chain 1 Y8Q,-6.56 log2 (difference from the parental peptide)
15,chain 1 Y8V,-2.87 log2 (difference from the parental peptide)
16,chain 1 Y8F,2.01 log2 (difference from the parental peptide)
17,chain 1 Y8G,-6.32 log2 (difference from the parental peptide)
18,chain 1 Y8D,-6.74 log2 (difference from the parental peptide)
19,chain 1 A7M,2.23 log2 (difference from the parental peptide)
20,chain 1 A7N,-0.0931 log2 (difference from the parental peptide)
21,chain 1 A7Y,-0.717 log2 (difference from the parental peptide)
22,chain 1 A7T,-0.452 log2 (difference from the parental peptide)
23,chain 1 A7Q,2.05 log2 (difference from the parental peptide)

# Variants of: B2
row,Variant,enrichment
1,chain 1 Y8W,-3.69 log2 (difference from the parental peptide)
2,chain 1 Y8D,-6.77 log2 (difference from the parental peptide)
3,chain 1 Y8A,-8 log2 (difference from the parental peptide)
4,chain 1 Y8I,-5.15 log2 (difference from the parental peptide)
